One block for each binder: values may come before it.
How the values were obtained:
[1] = biological target: T1, human CD47 expressed on the cell surface (human, UniProt Q08722 19-323); test: cell-based or functional assay
[2] = biological target: T2, CD20 on cells (Raji cells, human B cells) (human, UniProt P11836 1-297); test: binding to Raji cells (CD20+/CD47+), FIG. 17
T2 construct: whole, on cells; The cells that carry it (Raji, B cells) also carry CD47
T2 sequence (looked up): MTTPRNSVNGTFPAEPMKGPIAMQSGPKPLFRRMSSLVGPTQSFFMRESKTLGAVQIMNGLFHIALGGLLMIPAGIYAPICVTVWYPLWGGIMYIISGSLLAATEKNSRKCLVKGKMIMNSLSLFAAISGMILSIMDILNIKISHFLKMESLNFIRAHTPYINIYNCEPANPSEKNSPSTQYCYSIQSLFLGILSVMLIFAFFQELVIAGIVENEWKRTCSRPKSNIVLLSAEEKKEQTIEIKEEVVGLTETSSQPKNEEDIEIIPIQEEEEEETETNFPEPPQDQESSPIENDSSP

[3] = biological target: T1, human CD47 expressed on the cell surface; test: blocking of human SIRPα binding to OCI-Ly3 cells (FIG. 21)

EC50, activation of macrophage phagocytosis of OCI-Ly3 cells [1]: 1.4 nM
EC50, activation of macrophage phagocytosis of Raji cells [1]: 1.8 nM
B1: TPP-1360 (bispecific antibody, human IgG1, kappa)
light 1: NIQMTQSPSSLSASVGDRVTITCRASQDIHRYLSWFQQKPGKVPKHLIYRESRFVDGVPSRFSGSGSGTEFTLTISSLQPEDFATYYCLQYDEFPYTFGGGTKVEIKRTVAAPSVFIFPPSDEELKSGTASVVCWLNNFYPREAKVQWKVDNALQSGNSEESVTEQDSKDSTYSLSSTLELSKADYEKHKVYACEVTHQGLSSPVTKSFNRGEC
heavy 1: QMQLVQSGAEVKKPGSSVKVSCKASGFNIKDYYLHWVRQAPGKGLEWMGWIDPDQGDTYYAQKFQGRVTITRDRSTSTAYMELRSLRAEDTAVYYCNAAYGESSYPMDYWGQGTLVTVSSASTKGPSVFPLAPSSKSTSGGTAALGCLVKDYFPEPVTVSWNSGALTSGVHTFPAVLKSSGLYSLSSVVTVPSSSLGTQTYICNVNHKPSNTKVDKKVEPKSCDKTHTCPPCPAPELLGGPSVFLFPPKPKDTLMISRTPEVTCVVVDVSHEDPEVKFNWYVDGVEVHNAKTKPREEQYNSTYRVVSVLTVLHQDWLNGKEYKCKVSNKALPAPIEKTISKAKGQPREPQVYVLPPSREEMTKNQVSLLCLVKGFYPSDIAVEWESNGQPENNYLTWPPVLDSDGSFFLYSKLTVDKSRWQQGNVFSCSVMHEALHNHYTQKSLSLSPGK
light 2: QIVLSQSPAILSASPGEKVTMTCRASSSVSYIHWFQQKPGSSPKPWIYATSNLASGVPVRFSGSGSGTSYSLTISRVEAEDAATYYCQQWTSNPPTFGGGTKLEIKRTVAAPSVAIFPPSDERLKSGTASVVCVLNNFYPREAKVQWKVDNALQSGNSQESVTEQDSKDSTYSLSSRLTLSKADYEKHKVYACEVTHQGLSSPVTKSFNRGEC
heavy 2: QVQLQQPGAELVKPGASVKMSCKASGYTFTSYNMHWVKQTPGRGLEWIGAIYPGNGDTSYNQKFKGKATLTADKSSSTAYMQLSSLTSEDSAVYYCARSTYYGGDWYFNVWGAGTTVTVSAASTKGPSVFPLAPSSKSTSGGTAWLGCEVTDYFPEPVTVSWNSGALTSGVHTFPAVLESSGLYSLSSVVTVPSSSLGTQTYICNVNHKPSNTKVDKKVEPKSCDKTHTCPPCPAPELLGGPSVFLFPPKPKDTLMISRTPEVTCVVVDVSHEDPEVKFNWYVDGVEVHNAKTKPREEQYNSTYRVVSVLTVLHQDWLNGKEYKCKVSNKALPAPIEKTISKAKGQPREPQVYVYPPSREEMTKNQVSLTCLVKGFYPSDIAVEWESNGQPENNYKTTPPVLDSDGSFALVSKLTVDKSRWQQGNVFSCSVMHEALHNHYTQKSLSLSPGK

EC50 [2]: ~1.1 nM
B2: rituximab (antibody, human IgG1, kappa, V domains shown)
VH: QVQLQQPGAELVKPGASVKMSCKASGYTFTSYNMHWVKQTPGRGLEWIGAIYPGNGDTSYNQKFKGKATLTADKSSSTAYMQLSSLTSEDSAVYYCARSTYYGGDWYFNVWGAGTTVTVSA
VL: QIVLSQSPAILSASPGEKVTMTCRASSSVSYIHWFQQKPGSSPKPWIYATSNLASGVPVRFSGSGSGTSYSLTISRVEAEDAATYYCQQWTSNPPTFGGGTKLEIKR
notes: Anti-CD20 antibody, bivalent to CD20; also called rituxan

EC50 [3]: 0.11 nM
B3: TPP-23 (408_437 Fab with IgG1) (antibody, V domains shown)
VH: QMQLVQSGAEVKKPGSSVKVSCKASGFNIKDYYLHWVRQAPGKGLEWMGWIDPDQGDTEYAQKFQGRVTITRDRSTSTAYMELRSLRAEDTAVYYCNAAYGSSSYPMDYWGQGTLVTVSS
VL: NIQMTQSPSSLSASVGDRVTITCRASQDIHRYLSWFQQKPGKVPKHLIYRANRLVSGVPSRFSGSGSGTEFTLTISSLQPEDFATYYCLQYDEFPYTFGGGTKVEIK
notes: also called parental CD47 mAb

— patent US20220340675A1 (CELGENE, published 2022)
